Test results: patent US20250051425A1 (YALE UNIVERSITY, published 2025)

Columns and labels:
[1] = molecular target: T1, Influenza A H1N1 (A/Puerto Rico/8/1934) Hemagglutinin/HA Protein (ECD, His Tag) (Influenza A H1N1 (A/Puerto Rico/8/1934), UniProt P03452 18-528); test: ELISA, coated antigen
T1 construct: extracellular domain; Bought; also called influenza A/PR8 (H1N1) hemagglutinin (HA); H1N1 HA

[2] = molecular target: T2, SARS S1 protein, His Tag (SARS-CoV-1, UniProt P59594 14-667); test: ELISA, coated antigen, mAb 3 µg/mL
T2 construct: domain: S1; also called recombinant severe acute respiratory syndrome coronavirus 1 (SARS-CoV-1) spike protein

T1 sequence (P03452 18-528): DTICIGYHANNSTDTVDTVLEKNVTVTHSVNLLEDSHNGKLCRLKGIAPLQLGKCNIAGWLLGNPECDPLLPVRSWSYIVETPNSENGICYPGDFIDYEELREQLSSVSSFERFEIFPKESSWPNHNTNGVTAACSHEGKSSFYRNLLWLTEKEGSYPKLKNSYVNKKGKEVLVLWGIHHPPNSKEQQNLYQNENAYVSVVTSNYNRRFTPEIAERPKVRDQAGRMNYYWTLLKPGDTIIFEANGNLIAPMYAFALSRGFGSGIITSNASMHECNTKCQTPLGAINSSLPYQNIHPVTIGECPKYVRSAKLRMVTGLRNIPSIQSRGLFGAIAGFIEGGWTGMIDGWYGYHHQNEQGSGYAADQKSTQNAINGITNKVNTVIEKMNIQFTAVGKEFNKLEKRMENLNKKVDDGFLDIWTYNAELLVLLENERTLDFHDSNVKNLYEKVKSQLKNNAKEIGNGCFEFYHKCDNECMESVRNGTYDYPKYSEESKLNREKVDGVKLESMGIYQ

B1: IGHV6-3 monoclonal antibody (mouse IgG2c, Ig kappa) (antibody, V domains shown)
VH: EVKLEESGGGLVQPGGSMKLSCVASGFTFSNYWMNWVRQSPEKGLEWVAQIRLKSDNYATHYAESVKGRFTISRDDSKSSVYLQMNNLRAEDTGIYYCTDITGPIDYWGQGTTLTVSS
VL: DIKMTQSPSSMYASLGERVTITCKASQDINSYLSWFQQKPGKSPKTLIYRANRLVDGVPSRFSGSGSGQDYSLTISSLEYEDMGIYYCLQYDEFPYTFGGGTKLEIK
notes: also called IGHV6-3 mAb; Mouse IGHV6-3 mAb, g2c
binding result [1]: binds | binding result [2]: binds
